Substitutions are numbered along the chain they refer to.

Experiment [1] deals with T1, DENV envelope domain III, serotype 4 (antigen of the Biacore assays) (Dengue virus serotype 4 (consensus …, UniProt P09866 570-673)).
T1 construct: also called DIII serotype 4; DIII.4
Kind of experiment: SPR (Biacore X100), scFv m366 immobilised on CM5, antigen injected, 1:1 Langmuir fit.

Experiment [2] has as its target T2, DENV envelope domain III, serotype 1 (antigen of the Biacore assays) (Dengue virus serotype 1 (consensus …, UniProt P17763 571-674)).
T2 construct: also called DIII serotype 1; DIII.1
T2 chain: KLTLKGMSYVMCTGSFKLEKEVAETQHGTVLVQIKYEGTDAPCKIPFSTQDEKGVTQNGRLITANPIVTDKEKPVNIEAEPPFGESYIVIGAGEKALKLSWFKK
The description is as above.

For experiment [3], the target named is T3, DENV envelope domain III, serotype 3 (antigen of the Biacore assays) (Dengue virus serotype 3 (consensus …, UniProt Q5UB51 569-672)).
T3 construct: also called DIII serotype 3; DIII.3
Described as above.

The target of experiment [4] is T4, DENV envelope domain III, serotype 2 (antigen of the Biacore assays) (Dengue virus serotype 2 (consensus …, UniProt P14337 571-674)).
T4 construct: also called DIII serotype 2; DIII.2
The description is as above.

Experiment [5] has as its target T1, DENV envelope domain III, serotype 4 …. Kind of experiment: SPR (Biacore). On the technique in general: SPR reads the build-up and loss of mass on a sensor chip optically.
In experiment [6] the target is T2, DENV envelope domain III, serotype 1 …. The experiment can be described thus: SPR (Biacore).
The target of experiment [7] is T3, DENV envelope domain III, serotype 3 …. Kind of experiment: SPR (Biacore).
For experiment [8], the target named is T4, DENV envelope domain III, serotype 2 …. The experiment can be described thus: SPR (Biacore).
In experiment [9] the target is T1, DENV envelope domain III, serotype 4 …. The experiment can be described thus: SPR (Biacore). This is another data set of the same source.
Experiment [10] deals with T2, DENV envelope domain III, serotype 1 …. Kind of experiment: SPR (Biacore).
Experiment [11] has as its target T3, DENV envelope domain III, serotype 3 …. Kind of experiment: SPR (Biacore). The source holds these as a separate data set.
In experiment [12] the target is T4, DENV envelope domain III, serotype 2 …. Kind of experiment: SPR (Biacore). This is another data set of the same source.

T4 sequence (P14337 571-674 limits assumed): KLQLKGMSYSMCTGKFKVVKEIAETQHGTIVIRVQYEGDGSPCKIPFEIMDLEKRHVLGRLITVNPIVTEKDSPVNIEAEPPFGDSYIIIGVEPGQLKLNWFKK
T3 sequence (Q5UB51 569-672 limits assumed): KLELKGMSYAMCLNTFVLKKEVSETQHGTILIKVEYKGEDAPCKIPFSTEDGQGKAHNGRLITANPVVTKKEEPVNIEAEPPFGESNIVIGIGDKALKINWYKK
T1 sequence (P09866 570-673 limits assumed): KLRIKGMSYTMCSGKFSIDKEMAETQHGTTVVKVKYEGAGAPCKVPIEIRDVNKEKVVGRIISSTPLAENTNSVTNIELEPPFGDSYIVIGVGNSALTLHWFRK

B1: human anti-dengue virus antibody scFv m366 (scFv)
scFv: QLQLQESGGGLVQPGGSLRLSCAASGFTFSSYSMNWVRQAPGKRLEWVSSISGSSSYIYYADSVKGRFTISRDNAKNSLYLQMDSLRAEDTAVYYCARYAAGIWTFDIWGQGTTVTVSSGGGGSGGGASGGGGSSYELTQPPSVSVAPGKTASISCGGDNIGRKSVHWFQQKPGQAPVLVLYDDSDRPSGIPARFSGSNSGNTATLTISRVEAGDEADYYCQVWARSSDHPNWVFGGGTKLTVLG
notes: also called antibody m366
As usually defined, the Kd is the concentration at which binding is half-saturated. A high value points to a looser complex. As a reminder, the koff is the rate constant with which the complex falls apart. A high value points to a short-lived complex. By kon is commonly meant the rate constant with which the complex forms. Take B1: the Kd in experiment [1] was found to be 12.4 nM; in [2], 6.14 nM; in experiment [3] it was 1.09 nM; in [4], 2.51 nM. The molecule further yielded a koff in experiment [3] of 0.000204 s⁻¹. Also, the kon in experiment [3] is 186000 M⁻¹ s⁻¹.

B2: human anti-dengue virus antibody scFv m366.6 (scFv)
scFv: B1 scFv with Y32H, V37I, G53S, K65R, A100M, T114M, R210G, H230L
notes: also called antibody m366.6
With B2, the Kd in experiment [5] is 0.75 nM; in [6], 0.44 nM; in [7] it was 0.27 nM; in experiment [8], 0.29 nM.

B3: human anti-dengue virus antibody scFv m360 (scFv)
scFv: QVTLKESGPTLVKRTQTLTLTCTFFGFSLSTSGMRVSWIRQPPGKALEWIARIDWDDDKFYSISLKSRLTISKDTSKNQVVLTMTNMDPVDTATYYCARTPYNWNDGPRGAFDIWGQGTMVTVSSEGGGSGGGASSGGGSQSVLTQPPSVSAAPGQKVTIPCSGSYSNIRNNYVSWYQQLPGTAPKLLIYDDNKRPSGIPDRFSGSKSGTLATLVITGLQSGDEADYYCGTWDSSLSGVVFGGGTKLTVLG
notes: also called antibody m360
Regarding B3, the Kd came to 82.8 nM in experiment [9], 5.84 nM in experiment [10], 0.116 nM in [11] and 5.13 nM in experiment [12].

B4: human anti-dengue virus antibody scFv m360.6 (scFv)
scFv: KVTLKESGPTLVKPRQTLTLTCTFSGFSLSTSGMRVSWVRQPPGKALEWIARIDWDDDKFYSTSLKTRLTISKDTFKNQVVLTMTNMDPVDTAMYYCVRTPYNWNDGPRGALDIWGQGTMVTVSSGGDRSDGGASGGGGSQSMLTQSPSVSAAPGQNVTISCSGDYPNIRNNYVSWYQQLPGAAPKLLIYDNNKRPSGIPDRFSGSKSGTSATLDITGLQTGDEADYYCGAWDSRLSAVVFGGGTKLTVLG
notes: also called antibody m360.6
Regarding B4, the Kd in [5] was determined as 33 nM; in [6], 0.31 nM; in experiment [7], 0.0023 nM; in [8] it was 0.24 nM.

The record behind these values is US20150218255A1 (US Dept. of Health and Human Services, published 2015).
